Data taken from publication PMC9461429.

Molecular target: Human SARS-CoV-2_Wuhan S (SmT1), C-terminally fused to the resistin trimerization domain (SARS-CoV-2 (Wuhan-Hu-1) | not stated)
Assay: SPR

Sequence of Human ACE2 (aa18-615), His6-tagged monomeric ACE2 (Q9BYF1 18-615): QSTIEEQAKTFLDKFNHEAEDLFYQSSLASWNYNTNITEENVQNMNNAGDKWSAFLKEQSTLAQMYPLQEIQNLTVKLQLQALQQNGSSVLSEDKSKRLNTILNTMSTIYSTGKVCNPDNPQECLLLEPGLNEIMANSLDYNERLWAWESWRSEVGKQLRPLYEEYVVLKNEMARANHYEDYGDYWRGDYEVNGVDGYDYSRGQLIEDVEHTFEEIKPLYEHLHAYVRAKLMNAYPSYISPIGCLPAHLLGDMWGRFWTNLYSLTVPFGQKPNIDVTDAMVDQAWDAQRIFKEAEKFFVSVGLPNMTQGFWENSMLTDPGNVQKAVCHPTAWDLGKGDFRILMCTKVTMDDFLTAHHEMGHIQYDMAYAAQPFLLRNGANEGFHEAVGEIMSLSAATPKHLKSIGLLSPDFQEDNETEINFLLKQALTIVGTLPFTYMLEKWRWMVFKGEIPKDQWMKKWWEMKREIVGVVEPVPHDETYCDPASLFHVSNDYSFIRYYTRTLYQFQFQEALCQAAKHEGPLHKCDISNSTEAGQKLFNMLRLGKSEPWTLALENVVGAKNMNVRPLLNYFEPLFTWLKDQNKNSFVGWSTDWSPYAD

In the case of “Human ACE2 (aa18-615), His6-tagged monomeric ACE2 (from UniProt Q9BYF1-1 18-615) (receptor)”, the Kd is reported as 165 nM.
